Laboratory results: the DeepSol protein solubility set

Assay: soluble on expression in E. coli; label from the status in PepcDB or PDB records

| Sequence | soluble on expression in E. coli |
| --- | --- |
| MAHHHHHHMSWRTRVVRCPLQEPHNPFDMGRVMQRFWSPFCKGVKGPDLHTYGFGETFSGMRTHDSDFTCQVNGQVGGAKLVEDFFITLLCGFDFEHVKVERHLTTSGAADPCQFQGTIVLAHTRPFLGWCPQPVTHSLEKCPSPSECDATKVSTNNINELGNTTATASRCLVQTGGNTEAPVPSLILNVPFTARLEGNVGRISHMILRSPAIGVIAAHQCCPAEVGSCLQNPEALQALVTLRRANVRPEMITDRTLVGITAKKAAWCSALGIL | not soluble |
| MGSDKIHHHHHHMACGEFSGDDAAMKQTSFATAEYAGKKRQTRRERFLAEMNVVVPWARLEALIEPHYPKSGKVGRPPIGVPRMLRMYFLQQWYTLADEALEDALYDSQAMREFIGIDLGRENVPDATTLLKFRRLLEQHDLTSAILAEVNAHLTERGLLMRQGTVVDATIIAAPSSTKNEDGKRDPEMHQTKKGNQWHFGMKMHSGVDAESGLIHSVVCTAANEADVAHAHELLHGQESQVHGDSGYTGIQRRDEITTAQEEGRLRQDMDWRIAMKRGQLKAMPEGPAKAMHEWFERRKAQVRAIVEHPFHVIKNLFGYRKVSYRGISKNEARAKAHAALANLYIARRRLLAQGLSASAA | not soluble |
| MSLNELDCLETASIKIDPFTLELSRSLSTAVGDIEQRRGHVVCVDINGTVGIGEATPLPGWTERYPDCQDALRSVSTDSTSTSTSTSTSTSASEITPDTRSAAHHGIELACVDAMARHHDSSLARFLSTDTPATSIPVNATIGDCDSEQTYKKAESAVEDGYTTIKLKVGARDIESDCNRVIAARSAVGEDITLRVDANGAWNRTAAERFLETARTVDIAYIEQPLPASDLDGHALLRGRGVDIAVDESMNRTSPEQIFAADAADIIVCKPMALGGPKQTLAVARKAEAVDIDTVVTTTIDGVIARMGAVHIAAALPGSGSNARACGLATGSMLADDLTANPVSISDGEISVPTGPGLAGGALRSCCNREGHHHHHH | soluble |
| MADPWQECMDYAVTLAGQAGEVVREALKNEMNIMVKSSPADLVTATDQKVEKMLITSIKEKYPSHSFIGEESVAAGEKSILTDNPTWIIDPIDGTTNFVHGFPFVAVSIGFVVNKKMEFGIVYSCLEDKMYTGRKGKGAFCNGQKLQVSHQEDITKSLLVTELGSSRTPETVRIILSNIERLLCLPIHGIRGVGTAALNMCLVAAGAADAYYEMGIHCWDVAGAGIIVTEAGGVLLDVTGGPFDLMSRRVIASSNKTLAERIAKEIQIIPLQRDDED | soluble |
| MKVTITANAPLSAGAMAVKKEAENANVFAALLAHKQQELLPAGAETSLFQEESSKNKEPDWQNGGMETGAAGQPSSAEKKPAQIESLWLAPSIMTALAVAPISAAAGAPLLEADQQAEGKTSDHWTFPFVGAMNGEETIAAQPAADEAGFERAFITDGRKSGHIDAESGSPSSGKTGMFPPLLSDGDQRPFHEQGGNRTVVALPNEASPVRPAGEKDVSLPKRGDKGHGGEATPSFTTPPALLSPSSSSVGLVGEMPASAGGSVADQVAHALRSARWMKLPNGVMQLVIRLHPEHLGTVTVKMTEEGGKLAAKLLVANDAVKELLYAHLPQLAQQLDASSITVEKWTVWSDYDSPAMPPYSGNRQGGQQQGESRQKQKREPSSSFPFALDGIEADA | not soluble |
| REEVRVVVGAERTELLLPLLRDKRVALVANATSVVGTEREHLLDNLLRQGVNVVKILGPEHGFRGDADAGATVKDERDVRTGIPIVSLYGKNKKPTPRMLADVDVLLFDMQDVGTRFFTYISTLHYVMEACAEEQKKLIVTDRPNPNDYVDGPILQDDCRSFVGVDPLPILHGLTIGELANMINGEGWLGKKEMKCDLTVVPMSGWKHGQEYALPVKPSPNLPTANAIAWYPSLCLFEATIMSVGRGTDFPFEVLGYPKKVFGSFVFVPRPIRGMDSNPLYKGRHCYGVDLRGEKAPRGLSLQLLIRYYQTARREGIKFVNRKQMFNLLAGTKELAQQIEKGRTEEQIRASWQSDLDKYHKLRKKYLLY | not soluble |
| MHRGITVQTSDLDDGVTGVVGKVYIEASPKHVWAAITDYNNHKSFVPKLIDSGLISDNGREQVMFERGKTGIFLFRKTVYIKLSLQGEYPKRLDFHQIEGDFKVYEGDWLIERASDGKGSILTFRAKIKPDFFAPAMFVRKVQQNDLPMVLAAMKKRAESAEGSLEHHHHHH | not soluble |
| NEPFHLATERNRVAVMSSGGKESLTTFGMLREIGADVFPVFFNESGGHWKTAKIAYDYMKKNYSNVHKVWSNVDRFYSFMNGHMPMLDQKEIRKTADSYPVQ | not soluble |
| MSTDITPSSAPQCPDHIVFEHVTKEFRTRSGTVRALDDVSLAIKRGSISAVIGHSGAGKSTLVRLINGLETPTRGRVLVDGTDVSQLSDKAMRPLRADIGMIFQQFNLFGSRTIYDNVAYPLKLAHWKKADEKKRITELLSFVGLTSKAWDHPDQLSGGQKQRVGIARALATKPSILLADESTSALDPETTADVLSLLKRVNAELGVTVVVITHEMEVVRSIAQQVSVLAAGHLVESGSARQVFAHPQSETTQRFLATIIGQHPNGEEQARLQSENPHARLVDVSSVASHSFGDALARISHTGASFQIVHGGVIEVHDGSLGNYTVALSGPAQAVEQAVQILEEVSNSAAPTTSATVPTPTEEAHLEHHHHHH | not soluble |
| MASYSEDQCSWRGSGLSQAVKNVEQVWLRCAEGSVEWLYPAGALRLTLSPRLPWSAMGPGESSRSPVSVCVKPDPHWGGAQLYLERDGVLELLVGDETSTTPGPAHVRCFSALPGERPALFLQATPHRDISRRIAAFRYELRGDWTAQPAVNTDPVSSEGACRPCNNTEILMAVCTSDFVVRGNIRSVGTDSNLNAAVIKVSATRVYRQKFALFPESGRLTRSGEIRTPLQCGVRPGAGSFLFTGRVHFGEAWLGCAPRYKDFLKAYEQAKQSLMIPCTLVND | not soluble |
| MTTARWVIDKHLQNFHILCKFAGILKTNSFISVEDKAKLSEKLEKLDLYHRRNTGKSLDATTHKIKELSFYMFGYRDVCGQVTQKFLFSPLGNLFLKHLDNNEYIQKIFLTMLWAIPFPHPYIKTDESIQLYPMRLIFKLLSDERLDCKLFSYEYIYLISFVKSADQNSYEKLVQDILVLRTCAEVKIKHQLTAENSRSHAYVNAAHEWESYFSKTLTDAGVLQKTDGKIICRLKHGKTETYRKVTSSEFSIPKQLQEFVKKLQSAYSFSEMPLNLNDSDRLKIDVIKEIYSFYPKELLEEIGELKDEAAYELLHLPRLIEQYADNNNGTEAYLFEDVLEMGFNMFYNVEAKKIGGPGNTDLECLYITQKRKFAVEAKSTKNKLSGINSGRLEDHKNKIKAIYTIVVTPRYVPAVLSDIRNCPIVIIRANTFAEFLYNCLINRSSIPEIDYRYFDEIIIKNLGKDISSEISNLTMQQFASNTTMEAYST | not soluble |
| AAMTLASQIATQLLDIKAVYLKPEDPFTWASGIKSPIYTDNRVTLSYPKTRDLIENGFVETIKAHFPEVEVIAGTATAGIPHGAIIADKMTLPFAYIRSKPKDHGAGNQIEGRVLKGQKMVIIEDLISTGGSVLDAAAAASREGADVLGVVAIFTYELPKASQNFKEAGIKLITLSNYTELIAVAKLQGYITNDGLHLLKKFKEDQVNWQQ | soluble |
| MGSDKIHHHHHHMFLKNCWYVAAWSHEIDRTLQPQTFLGENVVLYRKQDGTPVALEDACPHRKLPLSDGALQGDTVECGYHGLTFDCAGACVAAPTQKDAIPKRATVKSYPVVDRYRFTWIWMGDPAEADPDLIFPIPNFDDPTWGKTDGGVLDIDCNYLWVVDNLLDPSHVAWVHVTSFAGGGTDGAPLQVDKTEHGVQVTRWIFGEPPSPYYENLLAFQGPCDRLQHYEMTRPAMATNMSIYTPPGTGGYGRSPVENTFINISYNFMTPITEDKTRYFWFQHRNSEPDNVEMSETMNKGAVMAFHEDKAILEKVHTGMKHAVTPHIDLGLDAGAKTFRLGLQKAIETENA | not soluble |
| MQKQLLLGVEAIAQAALDAGISGVYAYPGTPSTEITEHIQNSRMAKERNVHREWAANEKTAMESALGMSYAGKRALVCMKHVGMNVAADCFMNAAITGANGGMVIVAADDPSMHSSQNEQDSRVYGQFAMIPVMEPSNQQEAYDMTRLAFDLSERLGTPVMMRITTRLAHSRAGVVQTEPIGENELHLP | not soluble |
| MGSDKIHHHHHHMYREYQPCGLLAPYVDKIWEFKGSPEYGMRINVLPDGCTDLIFALGGITQPVGSEGRIMPSCRSFFVGPMKRYSELVAYTETVHMVGIRFHPCGLFRFMDLPVQELGGQRISSADLGIKLFDDSFTERLYELPDLRSRIQCIETVLVRSMHKHDVVDKQIVFAVNHIHLYHGQREIRLLAEDTCLCQRHLERRFKLFTGFTPKEYSRIVKFRHAIDLLKNTTEANNLLSVAVNAGYYDVSHFLKEVKTLSGGTAESFLSPTLPQEGLLTYIEK | not soluble |
| MGSDKIHHHHHHMQMENSVTTRSRSPDAVRDSAVDRNAYQAKIDPHALKFQIFQEVLTIKREFKCCGGGCCGCLACIGCCQQECIIETPSMGVLGIIRQRCGCMSSNYDIMDGDGNVIFQIDGPCCCMLCGCQDKEFPIKTANNGTVVGAITKKWGGCFREAFTDADTFAVNFPGDLDVKLKGVLIGATFLIDFMEFEQQSQNRNNGV | not soluble |
| MGHHHHHHSHMKIFKFTPENNLFYGYILEDMKTGFNILREIMVEGYRPSIARLYDAEDGTQHFTHFADGKCVLIFMAEGNPRIAKVTGEGIAEIVARYPQCQRVDSKLIETWFNNLNWGPDKVAAERVQILKTGNMGFTTEVSGCWSCIHEIYESVINRIRTEFPHADDITMLGGHSSHSYQNGTNMYFVYDYNVVDCKPEEEIDKYHNPLNKIICEETIRLGGSMVHHHGIGKHRVHWSKLEHGSAWALLEGLKKQFDPNGIMNTGTIYPIEK | not soluble |
| WFDTLNCHRLSDYQVGRAADIRLPEGCAFSDGIGSAFALEEAPPFSGRPDMPTAADFLALAAKGGYPAVHAAHAGLLYVRNKIALTAKEQAERRARP | not soluble |
| MGSDKIHHHHHHMFIINELNKIVNEEVISFHMPGHKKGQVYKKLGYKDILKNLYKMDTTEILGTDNLHFPEGIIKNSQKKASRVFKSDYTCYLVNGSSCGIQSAIMSVCSPKSKIITNRDCHQSVINGCILGDIDIEYVPCEISEETNVLKGISISNVIDIIDKNLDAKAVLLTYPTYYGMTYDLEYICNYAHSKKMVVIVDEAHGAHLGLSERLPKTALEQGADIVVQSTHKTLPAFTQSSMIHIQGDRVDIDKILNMLRITESSSPSYLLLSSLELAVDIYENKGKELMEELLNNIITFKNKVDSNINIYDTNDKTKIFISSKNMGLTGYELENILRNKYNIQVELSNYYGVLLICTIGNTAEDFSSLETALNNVVKEDFKFEKLENKKYPVVIPKKILTPREAFYKTKKSVKIYDSIGKVCGECIVPYPPGISVISPGEVISKEIIDYLMFCHSKGMIVSGLKDVDLNFIQVIDLEDI | not soluble |
| MDYEIRQEQKRKIAGFHMVGPWEHTVKQGFEQLMTWVDRQRIVPVEWIAVYYDNPDVVPAEKLRCDTVVSVAENFILPDNSEGVIVTAIEGGEYATAVARVEDRDFAKPWERFFDVLEQDSAYQIASAPCFETYLNNGMEDGYWDIEMYIPVQRK | not soluble |
| SLLQLNSPHVHNLFNTPFSAAIMDDVVIGLEVHVQLNRLRTKLFCSCPLNYHQSPPNTHVCPVCLGMPGAMPVINKEAVKAAVKVAMALNAEIQPFTVFDRKNYFYPDLPKGFQISQYDRPLALGGYVTIELDGQEKRIQLKRVHMEEDPGKLSYKGSITTAKYSLIDYNRSGAPLLEIVTEPVMNSPKEARLFLNKLRMILEYLEVFDGDLEGAMRVDANISIRGSGRVEIKNISSFKGVEKALSYEIMRQKNLLQRGRSVVRETRHFDEARNITVSLRSKEEEQDYRYFPEPDLVPVLTEEIVREVEGTLPEMPEEKRERLKRQYGIGDNFAKVLILDVKMADYFEEVAKLVDPKLAASWIVDVLRGELNYRDWSFAKCWEVFKPEEFAKLLKYFEEDRITEKGVVEVIRTKLDEGGEIDAIIQKKGLFAIPKEEIIKFCKEAIEENPKAVEDYLSGKRQALNFLVGQVMKKTRGRADPADTAKLIEEMLS | soluble |
